Values of other authors in article PMC7710720.

Biological target: Neurotensin (Homo sapiens) (UniProt P30990)

Kd: 6 nM
Substance: Neurotensin receptor 2 (from UniProt O95665)
